Laboratory results reported in paper doi:10.1101/785121 (bioRxiv, 2020).
Values joined by “and” are separate entries in the source; they are usually repeats but may differ in a detail not shown here. Identical values can stand only once. Like-named read-outs stand apart in the source and are kept apart here.

How the values were obtained:
[1] = molecular target: Isotopically depleted, truncated, strepII-tagged R. rubrum encapsulated ferritin (wild type) (Rhodospirillum rubrum); assay: native MS
[2] = molecular target: Isotopically depleted, truncated, strepII-tagged R. rubrum encapsulated ferritin (wild type) (Rhodospirillum rubrum); assay: native MS; remark: listed apart in the source
[3] = molecular target: Isotopically depleted, truncated, strepII-tagged R. rubrum encapsulated ferritin (wild type) (Rhodospirillum rubrum); assay: native MS; remark: listed apart in the source
[4] = molecular target: Isotopically depleted, truncated, strepII-tagged R. rubrum encapsulated ferritin (wild type) (Rhodospirillum rubrum); assay: native MS; remark: listed apart in the source
[5] = molecular target: Isotopically depleted, truncated, strepII-tagged R. rubrum encapsulated ferritin (wild type) (Rhodospirillum rubrum); assay: native MS; remark: listed apart in the source
[6] = molecular target: Isotopically depleted, truncated, strepII-tagged R. rubrum encapsulated ferritin (wild type) (Rhodospirillum rubrum); assay: native MS; remark: listed apart in the source
SEC = molecular target: the molecule itself; assay: SEC
[7] = molecular target: T1, Rhodospirillum rubrum encapsulin (Rhodospirillum rubrum, UniProt Q2RVS0 1-280); assay: SEC
T1 sequence: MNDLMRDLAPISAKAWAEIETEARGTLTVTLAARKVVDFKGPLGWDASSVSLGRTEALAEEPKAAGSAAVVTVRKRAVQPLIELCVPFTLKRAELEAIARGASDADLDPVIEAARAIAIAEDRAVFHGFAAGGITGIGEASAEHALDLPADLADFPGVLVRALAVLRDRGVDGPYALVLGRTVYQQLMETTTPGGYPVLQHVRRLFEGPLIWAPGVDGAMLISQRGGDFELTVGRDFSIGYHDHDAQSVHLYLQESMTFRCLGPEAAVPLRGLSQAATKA

native MS [8] = molecular target: the molecule itself; assay: native MS
native MS [9] = molecular target: the molecule itself; assay: native MS; remark: listed apart in the source
crystal structure = molecular target: the molecule itself; assay: crystal structure

Isotopically depleted, truncated, strepII-tagged R. rubrum encapsulated ferritin (wild type) (domain or fragment)
stoichiometry N [1]: 4
stoichiometry N [2]: 10
stoichiometry N [3]: 10
stoichiometry N [4]: 2
stoichiometry N [5]: 2
stoichiometry N [6]: 10

B1: Rhodospirillum rubrum encapsulated ferritin, wild type (natural protein)
chain: MAQSSNSTHEPLEVLKEETVNRHRAIVSVMEELEAVDWYDQRVDASTDPELTAILAHNRDEEKEHAAMTLEWLRRNDAKWAEHLRTYLFTEGPITAIEAADTAGEGSGGDAAKGATAQGDGSLGIGSLKGEAALARPPRL
stoichiometry N (SEC): 10 and 4
binding result [7]: binds
stoichiometry N (native MS [8]): 2

B2: Rhodospirillum rubrum encapsulated ferritin E31A variant (natural protein)
chain: MAQSSNSTHEPLEVLKEETVNRHRAIVSVMAELEAVDWYDQRVDASTDPELTAILAHNRDEEKEHAAMTLEWLRRNDAKWAEHLRTYLFTEGPITAIEAADTAGEGSGGDAAKGATAQGDGSLGIGSLKGEAALARPPRL
stoichiometry N (SEC): 4 and 2
binding result [7]: binds
stoichiometry N (native MS [9]): 10

B3: Rhodospirillum rubrum encapsulated ferritin E34A variant (natural protein)
chain: MAQSSNSTHEPLEVLKEETVNRHRAIVSVMEELAAVDWYDQRVDASTDPELTAILAHNRDEEKEHAAMTLEWLRRNDAKWAEHLRTYLFTEGPITAIEAADTAGEGSGGDAAKGATAQGDGSLGIGSLKGEAALARPPRL
stoichiometry N (SEC): 4 and 2
binding result [7]: binds
stoichiometry N (native MS [9]): 10

B4: Rhodospirillum rubrum encapsulated ferritin W38A variant (natural protein)
chain: MAQSSNSTHEPLEVLKEETVNRHRAIVSVMEELEAVDAYDQRVDASTDPELTAILAHNRDEEKEHAAMTLEWLRRNDAKWAEHLRTYLFTEGPITAIEAADTAGEGSGGDAAKGATAQGDGSLGIGSLKGEAALARPPRL
binding result [7]: binds

B5: Rhodospirillum rubrum encapsulated ferritin W38G variant (natural protein)
chain: MAQSSNSTHEPLEVLKEETVNRHRAIVSVMEELEAVDGYDQRVDASTDPELTAILAHNRDEEKEHAAMTLEWLRRNDAKWAEHLRTYLFTEGPITAIEAADTAGEGSGGDAAKGATAQGDGSLGIGSLKGEAALARPPRL
binding result [7]: binds

B6: Truncated, C-terminally hexahistidine-tagged R. rubrum encapsulated ferritin E31A variant (domain or fragment)
chain: MAQSSNSTHEPLEVLKEETVNRHRAIVSVMAELEAVDWYDQRVDASTDPELTAILAHNRDEEKEHAAMTLEWLRRNDAKWAEHLRTYLFTEGPITA
stoichiometry N (crystal structure): 10

B7: Truncated, C-terminally hexahistidine-tagged R. rubrum encapsulated ferritin E34A variant (domain or fragment)
chain: MAQSSNSTHEPLEVLKEETVNRHRAIVSVMEELAAVDWYDQRVDASTDPELTAILAHNRDEEKEHAAMTLEWLRRNDAKWAEHLRTYLFTEGPITA
stoichiometry N (crystal structure): 10
